Test results taken from the RNAGym collection of RNA variant scans (doi:10.7554/elife.90254).

B1: OR4K15 (parent)
chain: GUUAACGGUCAUAGGCCAUGGAAACUAGGAGCACCAUUUCGCUGCCAGUGAAGAAAUGAACAAAGAAAAUCUGGGCCAGGCAGGCAUCAAAAGAAAUAGUCUUGCGCUCAACCAGAAAGUCUGUAAUCAUUUUAAGGGUA

Variants of: B1
Test: self-cleavage, relative activity (ratio to wild type); higher = more cleavage; in vitro, sequencing; the parent is a self-cleaving ribozyme

| Variant | self-cleavage |
| --- | --- |
| GUUAACGGUCAUAGGCCAUGGAAACUAGGAGCACCAUUUCGCUGCCAGUGAAGAAAUUAACAAAGAAAAUCUGGGCCAGGCAGGCACCAAAAGAAAUAGUCUUGCGCUCAACCAGAAAGUCUGUAAUCAUUUUAAGGGUA [G58U U87C] | 0.38 |
| GUUAACGGUCAUAGGCCAUGGAAACUAGGAGCACCAUUUCGCUGCCAGUGAAGAAAUAAACAAAGAAAAUCUGGGCCAGGCAGGCAUCAAAAGAAAUAGUCUUGCGCUCAACCAGAAGGUCUGUAAUCAUUUUAAGGGUA [G58A A118G] | 0.52 |
| GUUAACGGUCAUAGGCCAUGGAAACUAGGAGCACCAUUUCGCUGCCAGUGAAGAAAUGGACAAAGUAAAUCUGGGCCAGGCAGGCAUCAAAAGAAAUAGUCUUGCGCUCAACCAGAAAGUCUGUAAUCAUUUUAAGGGUA [A59G A66U] | 1.75 |
| GUUAACGGUCAUAGGCCAUGGAAACUAGGAGCACCAUUUCGCUGCCAGUGAAGAAAUGGACAAAGGAAAUCUGGGCCAGGCAGGCAUCAAAAGAAAUAGUCUUGCGCUCAACCAGAAAGUCUGUAAUCAUUUUAAGGGUA [A59G A66G] | 1.15 |
| GUUAACGGUCAUAGGCCAUGGAAACUAGGAGCACCAUUUCGCUGCCAGUGAAGAAAUUAACAAAGAAAAUCUGGGCCAGGCAGGCAUCUAAAGAAAUAGUCUUGCGCUCAACCAGAAAGUCUGUAAUCAUUUUAAGGGUA [G58U A89U] | 1.46 |
| GUUAACGGUCAUAGGCCAUGGAAACUAGGAGCACCAUUUCGCUGCCAGUGAAGAAAUUAACAAAGAAAAUCUGGGCCAGGCAGGCAUCAAAAGAAAUAGCCUUGCGCUCAACCAGAAAGUCUGUAAUCAUUUUAAGGGUA [G58U U100C] | 2.08 |
| GUUAACGGUCAUAGGCCAUGGAAACUAGGAGCACCAUUUCGCUGCCAGUGAAGAAAUUAACAAAGAAAAUCUGGGCCAGGCAGGCAUCAAAAGAAAUGGUCUUGCGCUCAACCAGAAAGUCUGUAAUCAUUUUAAGGGUA [G58U A98G] | 0.34 |
| GUUAACGGUCAUAGGCCAUGGAAACUAGGAGCACCAUUUCGCUGCCAGUGAAGAAAUAAACAAAGAAAAUCUGGGCCAGGCAGGCAUCAAAAGAAAUAGUCUUGCACUCAACCAGAAAGUCUGUAAUCAUUUUAAGGGUA [G58A G106A] | 0.01 |
| GUUAACGGUCAUAGGCCAUGGAAACUAGGAGCACCAUUUCGCUGCCAGUGAAGAAAGGAACAAAGAAAAUCUGGGCCAGGCAGGCAUCAAAAGAAAUAGUCUUGCGCUCAACCAGAAAGCCUGUAAUCAUUUUAAGGGUA [U57G U120C] | 1.11 |
| GUUAACGGUCAUAGGCCAUGGAAACUAGGAGCACCAUUUCGCUGCCAGUGAAGAAAUUAACAAAGAAAAUCUGGGCCAGGCAGGCAUCAGAAGAAAUAGUCUUGCGCUCAACCAGAAAGUCUGUAAUCAUUUUAAGGGUA [G58U A90G] | 1.25 |
| GUUAACGGUCAUAGGCCAUGGAAACUAGGAGCACCAUUUCGCUGCCAGUGAAGAAAUGCACAAAGAAAAUCUGGGCCAGGCAGGCAUCAAAAGAAAUAGUCUCGCGCUCAACCAGAAAGUCUGUAAUCAUUUUAAGGGUA [A59C U103C] | 0.57 |
| GUUAACGGUCAUAGGCCAUGGAAACUAGGAGCACCAUUUCGCUGCCAGUGAAGAAAUGCACAAAGAAAAUCUGGGCCAGGCAGGCAUCAAAAGAAAUAGUCUUGCGCUCAACAAGAAAGUCUGUAAUCAUUUUAAGGGUA [A59C C113A] | 0.02 |
| GUUAACGGUCAUAGGCCAUGGAAACUAGGAGCACCAUUUCGCUGCCAGUGAAGAAAUAAACAAAGAAAAUCUGGGCCAGGCAGGCAUCAAAAGAAAUAGUCUUGCGCUCAACCAGAAAGUCUGUAAUCAUUUUAAGGGUG [G58A A140G] | 1.85 |
| GUUAACGGUCAUAGGCCAUGGAAACUAGGAGCACCAUUUCGCUGCCAGUGAAGAAAUGGACCAAGAAAAUCUGGGCCAGGCAGGCAUCAAAAGAAAUAGUCUUGCGCUCAACCAGAAAGUCUGUAAUCAUUUUAAGGGUA [A59G A62C] | 0.43 |
| GUUAACGGUCAUAGGCCAUGGAAACUAGGAGCACCAUUUCGCUGCCAGUGAAGAAAGGAACAAAGAAAAUCUGGGCCAGGCAGGCAUCAAAAGAAAUAGUCUUGCGCUCAACCAGAAAGUCUGUAAUCAUUUUAAGCGUA [U57G G137C] | 1.71 |
| GUUAACGGUCAUAGGCCAUGGAAACUAGGAGCACCAUUUCGCUGCCAGUGAAGAAAUAAACAAAGAAAAUCUGGGCCAGGCAGGCAUCAAAAGAAAUAGUCUUGCGCUCAACCAGAAAGUCUGUAAUCAUUUUAAGGGCA [G58A U139C] | 0.57 |
| GUUAACGGUCAUAGGCCAUGGAAACUAGGAGCACCAUUUCGCUGCCAGUGAAGAAAUGCACAAAGAAAAUCUGGGCCAGGCAGGCAUCAAAAGAAAUAGUCCUGCGCUCAACCAGAAAGUCUGUAAUCAUUUUAAGGGUA [A59C U102C] | 1.51 |
| GUUAACGGUCAUAGGCCAUGGAAACUAGGAGCACCAUUUCGCUGCCAGUGAAGAAAUGGACAAUGAAAAUCUGGGCCAGGCAGGCAUCAAAAGAAAUAGUCUUGCGCUCAACCAGAAAGUCUGUAAUCAUUUUAAGGGUA [A59G A64U] | 0.74 |
| GUUAACGGUCAUAGGCCAUGGAAACUAGGAGCACCAUUUCGCUGCCAGUGAAGAAAUGGACAAGGAAAAUCUGGGCCAGGCAGGCAUCAAAAGAAAUAGUCUUGCGCUCAACCAGAAAGUCUGUAAUCAUUUUAAGGGUA [A59G A64G] | 1.37 |
| GUUAACGGUCAUAGGCCAUGGAAACUAGGAGCACCAUUUCGCUGCCAGUGAAGAAAUAAACAAAGAAAAUCUGGGCCAGGCAGGCAUCAAAAGAAAUAGUCUCGCGCUCAACCAGAAAGUCUGUAAUCAUUUUAAGGGUA [G58A U103C] | 1.09 |
| GUUAACGGUCAUAGGCCAUGGAAACUAGGAGCACCAUUUCGCUGCCAGUGAAGAAAUGCACAAAGAAAAUCUGGGCCAGGCAGGCAUCAAAAGAAAUAGUCUUGCGCUCAACCAGAAAGUCUGAAAUCAUUUUAAGGGUA [A59C U124A] | 0.73 |

| Variant | self-cleavage |
| --- | --- |
| GUUAACGGUCAUAGGCCAUGGAAACUAGGAGCACCAUUUCGCUGCCAGUGAAGAAAGGAACAAAGAAAAUCUGGGCCAGGCAGGCAUCAAAAGAAAUAGCCUUGCGCUCAACCAGAAAGUCUGUAAUCAUUUUAAGGGUA [U57G U100C] | 2.26 |
| GUUAACGGUCAUAGGCCAUGGAAACUAGGAGCACCAUUUCGCUGCCAGUGAAGAAAUGGACAAAGAAAUUCUGGGCCAGGCAGGCAUCAAAAGAAAUAGUCUUGCGCUCAACCAGAAAGUCUGUAAUCAUUUUAAGGGUA [A59G A69U] | 1.7 |
| GUUAACGGUCAUAGGCCAUGGAAACUAGGAGCACCAUUUCGCUGCCAGUGAAGAAAUGGACAAAGAAACUCUGGGCCAGGCAGGCAUCAAAAGAAAUAGUCUUGCGCUCAACCAGAAAGUCUGUAAUCAUUUUAAGGGUA [A59G A69C] | 0.6 |
| GUUAACGGUCAUAGGCCAUGGAAACUAGGAGCACCAUUUCGCUGCCAGUGAAGAAAGGAACAAAGAAAAUCUGGGCCAGGCAGGCAUCAAAAGAAAUAGUCUUGCGCUCAACCAGAAAGUCUGUAAUCAUUUUAAGGGUU [U57G A140U] | 1.23 |
| GUUAACGGUCAUAGGCCAUGGAAACUAGGAGCACCAUUUCGCUGCCAGUGAAGAAAUAAACAAAGAAAAUCUGGGCCAGGCAGGCAUCAAAAGAAAUAGUCUUGCGCUCAACCAGAAAGUCUGUAGUCAUUUUAAGGGUA [G58A A126G] | 0.63 |
| GUUAACGGUCAUAGGCCAUGGAAACUAGGAGCACCAUUUCGCUGCCAGUGAAGAAAUUAACAAAGAUAAUCUGGGCCAGGCAGGCAUCAAAAGAAAUAGUCUUGCGCUCAACCAGAAAGUCUGUAAUCAUUUUAAGGGUA [G58U A67U] | 2.46 |
| GUUAACGGUCAUAGGCCAUGGAAACUAGGAGCACCAUUUCGCUGCCAGUGAAGAAAUUAACAAAGAGAAUCUGGGCCAGGCAGGCAUCAAAAGAAAUAGUCUUGCGCUCAACCAGAAAGUCUGUAAUCAUUUUAAGGGUA [G58U A67G] | 0.88 |
| GUUAACGGUCAUAGGCCAUGGAAACUAGGAGCACCAUUUCGCUGCCAGUGAAGAAAUUAACAAAGAAAAUCUGGGCCAGGCAGGCAUCAAAAGAAAUAGUCUUGCGCCCAACCAGAAAGUCUGUAAUCAUUUUAAGGGUA [G58U U108C] | 0.02 |
| GUUAACGGUCAUAGGCCAUGGAAACUAGGAGCACCAUUUCGCUGCCAGUGAAGAAAGGAACAAAGAAAAUCUGGGCCAGGUAGGCAUCAAAAGAAAUAGUCUUGCGCUCAACCAGAAAGUCUGUAAUCAUUUUAAGGGUA [U57G C81U] | 0.29 |
| GUUAACGGUCAUAGGCCAUGGAAACUAGGAGCACCAUUUCGCUGCCAGUGAAGAAAUUAACAAAGAAAAUCUGGGCCAGGCAGGCAUCAAAAGAAAUAGUCUUGCGCUCAACCAGAAAGUCUGUAACCAUUUUAAGGGUA [G58U U127C] | 1.33 |
| GUUAACGGUCAUAGGCCAUGGAAACUAGGAGCACCAUUUCGCUGCCAGUGAAGAAAUAAACGAAGAAAAUCUGGGCCAGGCAGGCAUCAAAAGAAAUAGUCUUGCGCUCAACCAGAAAGUCUGUAAUCAUUUUAAGGGUA [G58A A62G] | 1.01 |
| GUUAACGGUCAUAGGCCAUGGAAACUAGGAGCACCAUUUCGCUGCCAGUGAAGAAAUAAACAAAGAAAAUCUGGGCCAGGCAGGCAUCAAAAGAAAUAGUCUUGCGCUCAACCAGGAAGUCUGUAAUCAUUUUAAGGGUA [G58A A116G] | 0.29 |
| GUUAACGGUCAUAGGCCAUGGAAACUAGGAGCACCAUUUCGCUGCCAGUGAAGAAAUGCACAAAGAAAAUCUGGGCCAGGCAGGCAUCAAAAGAAAUAGUCUUGCGCUCAACCAGAAAGUCUGUAAUCAUUUUAAGGGUA [A59C] | 1.66 |
| GUUAACGGUCAUAGGCCAUGGAAACUAGGAGCACCAUUUCGCUGCCAGUGAAGAAAUGGACAAAGAAAAUCUGGGCCAGGCAGGCAUCAAAAGAAAUAGUCUUGCGCUCAACCAGAAAGUCUGUAAUCAUUUUAAGGGUA [A59G] | 1.06 |
| GUUAACGGUCAUAGGCCAUGGAAACUAGGAGCACCAUUUCGCUGCCAGUGAAGAAAUGCACAAAGAAAAUCUGGGCCAGGCAGGCAUCAAAAGAAAUAGUCUUGCGCUCAACCAGAAAGUCUGUAACCAUUUUAAGGGUA [A59C U127C] | 1.18 |
| GUUAACGGUCAUAGGCCAUGGAAACUAGGAGCACCAUUUCGCUGCCAGUGAAGAAAUUAACAAAGAAAAUCUGGGCCAGGCAGGCAUCAAAAGAAAUAGUCUUGCACUCAACCAGAAAGUCUGUAAUCAUUUUAAGGGUA [G58U G106A] | 0.01 |
| GUUAACGGUCAUAGGCCAUGGAAACUAGGAGCACCAUUUCGCUGCCAGUGAAGAAAUGCACAAAGAAAAUCUGGGCCAGGCAGGCAUCAAAAGAAAUAGUCUUGCGCUCAACCAGAAAGUCUGUAAUCAUUCUAAGGGUA [A59C U132C] | 1.64 |
| GUUAACGGUCAUAGGCCAUGGAAACUAGGAGCACCAUUUCGCUGCCAGUGAAGAAAUGGACAAAGAAUAUCUGGGCCAGGCAGGCAUCAAAAGAAAUAGUCUUGCGCUCAACCAGAAAGUCUGUAAUCAUUUUAAGGGUA [A59G A68U] | 1.91 |
| GUUAACGGUCAUAGGCCAUGGAAACUAGGAGCACCAUUUCGCUGCCAGUGAAGAAAUAAACAAAGAAAAUCUGGGCCAGGCAGGCAUCAAAAGAAAUAGUCUUGCGCUCAACCAGAAAGUCUGUAAUCAUUUCAAGGGUA [G58A U133C] | 1.94 |
| GUUAACGGUCAUAGGCCAUGGAAACUAGGAGCACCAUUUCGCUGCCAGUGAAGAAAUUAACAAAGAAAAUCUGGGCCAGGCAGGCAUCAAAAGAAAUAGUCUUGCGCUCGACCAGAAAGUCUGUAAUCAUUUUAAGGGUA [G58U A110G] | 0.11 |
